Assay results: article PMC9888390 (2023)

Target: Recombinant HSV-1 glycoprotein B, soluble ectodomain (HSV-1)
Assay: Luminex binding assay

B1: BMPC-23 recombinant mouse IgG (antibody, V domains shown)
VH: QVQLQQSGPELVKPGASVKLSCKASGYSFTTYDINWVKERPGQGLEWIGWIYPREGSTNYNEKFRGKATLTADTSSSTAYMELHSLTSEDSAVYFCATYGSSRYYTMDYWGQGTSVTVSS
VL: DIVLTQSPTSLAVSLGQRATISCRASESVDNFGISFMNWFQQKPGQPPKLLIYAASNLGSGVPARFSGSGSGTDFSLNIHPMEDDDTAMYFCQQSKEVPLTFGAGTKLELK
EC50: 3.5 ng/mL
